Test results reported in US20210228731A1, “ANTIBODY DRUG CONJUGATES FOR ABLATING HEMATOPOIETIC STEM CELLS” (NOVARTIS AG, priority 2018, published 2021).

Test system: human peripheral blood HSC-derived mast cells
Assay: In vitro human mast cell degranulation assay (beta-hexosaminidase release)
Type: cell-based
Conditions: test agents 0.006-25 nM cross-linked with antibody specific for the Fab portion; absence of SCF
Method: Mature mast cells were generated using CD34+ progenitors from mobilized peripheral blood. CD34+ cells were cultured in StemSpan SFEM (StemCell Technologies) supplemented with recombinant human stem cell factor (rhSCF, 50 ng/ml, Gibco), recombinant human interleukin 6 (rhIL-6, 50 ng/ml, Gibco), recombinant human IL-3 (30 ng/ml, Peprotech), GlutaMAX ([…], Gibco), penicillin (100 U/ml, Hyclone) and streptomycin (100 μg/ml, Hyclone). Recombinant hll-3 was added only during the first week of the culture. After the third week, half of the medium was replaced weekly with fresh medium containing rhIL-6 (50 ng/ml) and rhSCF (50 ng/ml). Mature mast cell purity was evaluated by surface staining of high-affinity IgE receptor (FCεRI, eBioscience) and CD117 (BD). […]
The derived mast cells were washed once to remove SCF, and the required amount of cells was incubated overnight in mast cell medium containing rhIL-6 (50 ng/ml) with or without rhSCF (50 ng/ml). […] During this incubation, p-nitro-N-acetyl-pi-D-gluosamine (pNAG, Sigma) buffer was prepared by sonicating 3.5 mg/ml of pNAG in citrate buffer (40 mM citric acid, 20 mM sodium phosphate dibasic, pH 4.5). β-hexosaminidase release was measured by mixing 20 μl of cell supernatant with 40 μl of pNAG solution in a flat-bottom 384-well plate. […] Absorbance was read using a plate reader at λ=405 nm with reference filter at λ=620 nm. […]

B1: anti-cKIT Fab4 (HC-E152C): anti-cKIT Fab fragment with heavy chain E152C (Cys Fab HC SEQ ID NO: 136) (antibody)
heavy: QVQLQQSGPGLVKPSQTLSLTCAISGDSVSTNSAAWNWIRQSPSRGLEWLGRIYYRSQWLNDYAVSVKSRITINPDTSKNQFSLQLNSVTPEDTAVYYCARQLTYPYTVYHKALDVWGQGTLVTVSSASTKGPSVFPLAPSSKSTSGGTAALGCLVKDYFPCPVTVSWNSGALTSGVHTFPAVLQSSGLYSLSSVVTVPSSSLGTQTYICNVNHKPSNTKVDKRVEPKSCD
modifications: light chain not cited
mast cell degranulation (beta-hexosaminidase release) when cross-linked: no mast cell degranulation was triggered
